# In paper doi:10.1101/789909 (bioRxiv, 2019):
# T1: EcTatBC with 6xHis tag (complex of TatB and TatC), purified (E. coli, UniProt P69425 1-171; P69423 1-258)
# T1 sequence 1: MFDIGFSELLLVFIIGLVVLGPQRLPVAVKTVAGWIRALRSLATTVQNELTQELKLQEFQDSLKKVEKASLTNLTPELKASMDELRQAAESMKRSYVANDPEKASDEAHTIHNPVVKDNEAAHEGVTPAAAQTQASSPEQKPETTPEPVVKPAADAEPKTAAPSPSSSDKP
# T1 sequence 2: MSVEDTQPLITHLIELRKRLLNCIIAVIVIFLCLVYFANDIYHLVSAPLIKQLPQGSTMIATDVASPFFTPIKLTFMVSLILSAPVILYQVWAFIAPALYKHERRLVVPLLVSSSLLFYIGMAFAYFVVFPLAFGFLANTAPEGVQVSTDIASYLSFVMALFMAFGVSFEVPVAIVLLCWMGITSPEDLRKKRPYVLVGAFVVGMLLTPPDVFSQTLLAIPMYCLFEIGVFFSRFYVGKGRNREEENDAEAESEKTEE
# B1: purified DmsD (natural protein)
# chain: MTHFSQQDNFSVAARVLGALFYYAPESAEAAPLVAVLTSDGWETQWPLPEASLAPLVTAFQTQCEETHAQAWQRLFVGPWALPSPPWGSVWLDRESVLFGDSTLALRQWMREKGIQFEMKQNEPEDHFGSLLLMAAWLAENGRQTECEELLAWHLFPWSTRFLDVFIEKAEHPFYRALGELARLTLAQWQSQLLIPVAVKPLFR
# What was measured:
# [1] = biological target: purified DmsD (E. coli) (UniProt P69853); assay: SPR
# [2] = biological target: T1, EcTatBC with 6xHis tag (complex of TatB …); assay: SPR
Molecule,Kd [1] [nM],binding result [2]
"ssDmsA_45 (printed ssDmsD_45), truncated form of ssDmsA-GFP (domain or fragment)",55.9,
B1,,binds
